Test results reported in PMC4558366.

How the values were obtained:
Experiment in all cases: ITC
[1] = biological target: T1, UHRF1_(600-687) (human), Q96T88
T1 chain: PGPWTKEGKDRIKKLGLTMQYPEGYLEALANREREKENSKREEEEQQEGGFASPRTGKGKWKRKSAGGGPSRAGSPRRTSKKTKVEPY

[2] = biological target: T2, UHRF1_(647-678) (human), Q96T88
T2 chain: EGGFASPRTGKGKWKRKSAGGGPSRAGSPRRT

[3] = biological target: T3, UHRF1_(647-687) K659E (human), Q96T88
T3 chain: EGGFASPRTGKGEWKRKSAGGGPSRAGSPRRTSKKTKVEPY

[4] = biological target: T4, UHRF1_(SRA-RING) (residues 419-806) (human), Q96T88
T4 chain: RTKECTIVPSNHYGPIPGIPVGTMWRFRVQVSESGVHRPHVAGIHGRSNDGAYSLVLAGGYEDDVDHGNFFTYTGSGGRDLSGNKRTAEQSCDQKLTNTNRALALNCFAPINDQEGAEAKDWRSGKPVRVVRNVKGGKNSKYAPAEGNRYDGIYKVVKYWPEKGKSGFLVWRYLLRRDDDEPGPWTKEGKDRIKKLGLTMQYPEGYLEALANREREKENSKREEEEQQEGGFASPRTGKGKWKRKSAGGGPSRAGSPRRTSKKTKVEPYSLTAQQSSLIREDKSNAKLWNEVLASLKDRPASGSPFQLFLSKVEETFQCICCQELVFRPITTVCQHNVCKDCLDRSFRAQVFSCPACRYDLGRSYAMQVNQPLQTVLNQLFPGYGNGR

[5] = biological target: T5, UHRF1_(TTD-RING) (residues 138-806) (human), Q96T88
T5 chain: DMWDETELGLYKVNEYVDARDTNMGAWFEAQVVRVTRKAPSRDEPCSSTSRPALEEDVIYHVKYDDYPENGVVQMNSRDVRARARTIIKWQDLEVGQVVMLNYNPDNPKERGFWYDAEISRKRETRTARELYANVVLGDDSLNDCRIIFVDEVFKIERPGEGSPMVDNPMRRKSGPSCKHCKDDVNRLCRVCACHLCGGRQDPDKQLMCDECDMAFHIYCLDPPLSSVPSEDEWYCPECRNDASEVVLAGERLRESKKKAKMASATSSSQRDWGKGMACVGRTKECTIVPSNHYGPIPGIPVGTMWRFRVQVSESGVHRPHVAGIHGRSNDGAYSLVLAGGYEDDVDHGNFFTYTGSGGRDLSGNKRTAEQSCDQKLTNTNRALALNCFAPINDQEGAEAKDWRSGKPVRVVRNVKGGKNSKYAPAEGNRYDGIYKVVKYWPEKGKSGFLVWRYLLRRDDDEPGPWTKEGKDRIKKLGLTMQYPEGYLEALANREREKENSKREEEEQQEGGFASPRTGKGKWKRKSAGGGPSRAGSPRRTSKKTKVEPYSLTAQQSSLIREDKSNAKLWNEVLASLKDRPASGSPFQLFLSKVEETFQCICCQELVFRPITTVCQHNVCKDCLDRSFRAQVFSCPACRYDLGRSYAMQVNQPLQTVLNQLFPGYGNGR

B1: USP7 UBL1-2 (first two UBL domains of USP7) (domain or fragment)
chain: EAHLYMQVQIVAEDQFCGHQGNDMYDEEKVKYTVFKVLKNSSLAEFVQSLSQTMGFPQDQIRLWPMQARSNGTKRPAMLDNEADGNKTMIELSDNENPWTIFLETVDPELAASGATLPKFDKDHDVMLFLKMYDPKTRSLNYCGHIYTPISCKIRDLLPVMCDRAGFIQDTSLILYEEVKPNLTERIQDYDVSLDKALDELMDGDIIVFQKDDPENDNSELPTAKEYFRDLYH
modifications: not checked
Kd [1]: 1.42 µM
Kd [2]: 1.52 µM
fold reduction of binding affinity against wild type [3]: 38 fold
Kd [4]: 1.3 µM
Kd [5]: 27.2 µM
